Reference: patent US20200199241A1 (Chugai, published 2020)
Read-outs that look alike come from different tables or passages of the source.

T1: mouse FcγRIIb (mouse, UniProt P08101 30-207, limits assumed)
T1 construct: bought; also called mFcgRIIb; mFcgR IIb
T1 sequence (looked up): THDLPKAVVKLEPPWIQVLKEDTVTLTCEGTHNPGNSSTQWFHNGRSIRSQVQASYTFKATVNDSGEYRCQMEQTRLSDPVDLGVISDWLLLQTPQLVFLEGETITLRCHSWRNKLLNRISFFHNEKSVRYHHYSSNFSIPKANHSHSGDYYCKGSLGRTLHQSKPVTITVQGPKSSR

T2: mouse FcγRIII (mouse, UniProt P08508 31-215)
T2 construct: bought; also called mFcgRIII; mFcgR III
T2 sequence (looked up): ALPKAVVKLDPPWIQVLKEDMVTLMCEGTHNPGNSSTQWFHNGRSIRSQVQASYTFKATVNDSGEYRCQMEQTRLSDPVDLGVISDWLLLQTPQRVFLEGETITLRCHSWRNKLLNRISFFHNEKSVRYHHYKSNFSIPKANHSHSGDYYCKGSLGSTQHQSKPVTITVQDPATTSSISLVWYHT

T3: mouse FcγRIV (mouse, UniProt A0A0B4J1G0 21-203)
T3 construct: bought; also called mFcgRIV; mFcgR IV; the vendor's purification tag not given
T3 sequence: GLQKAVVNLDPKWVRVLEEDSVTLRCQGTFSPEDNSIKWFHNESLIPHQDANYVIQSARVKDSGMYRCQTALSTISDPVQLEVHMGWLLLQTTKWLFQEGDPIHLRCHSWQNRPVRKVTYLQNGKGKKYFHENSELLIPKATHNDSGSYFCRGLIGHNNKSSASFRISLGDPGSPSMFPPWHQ

T4: human FcγRIIb (human, UniProt P31994 43-217, limits assumed)
T4 construct: also called hFcgRIIb; FcγIIB
T4 sequence: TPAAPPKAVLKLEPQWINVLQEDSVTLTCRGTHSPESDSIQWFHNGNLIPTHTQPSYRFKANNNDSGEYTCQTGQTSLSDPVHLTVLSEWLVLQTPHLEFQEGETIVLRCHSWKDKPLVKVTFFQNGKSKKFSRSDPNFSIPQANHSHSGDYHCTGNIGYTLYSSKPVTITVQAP

T5: human FcγRIIa(R) (human, UniProt P12318 36-217)
T5 construct: also called hFcgRIIa(R); FcγRIIa type R
T5 chain: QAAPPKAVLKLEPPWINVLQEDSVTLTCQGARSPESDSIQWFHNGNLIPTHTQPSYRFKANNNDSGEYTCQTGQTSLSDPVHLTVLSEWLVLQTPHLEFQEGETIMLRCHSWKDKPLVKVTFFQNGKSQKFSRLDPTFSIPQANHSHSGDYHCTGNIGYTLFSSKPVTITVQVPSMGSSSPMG

T6: human FcγRIIa(H) (human, UniProt P12318 36-217)
T6 construct: also called hFcgRIIa(H); FcγRIIa type H
T6 sequence: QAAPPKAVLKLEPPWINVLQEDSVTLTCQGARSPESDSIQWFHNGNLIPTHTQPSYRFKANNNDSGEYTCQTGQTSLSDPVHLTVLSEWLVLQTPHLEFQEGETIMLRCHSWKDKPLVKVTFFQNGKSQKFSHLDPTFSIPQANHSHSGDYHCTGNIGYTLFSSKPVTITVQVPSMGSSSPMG

T7: human FcγRIIa(R) (human, UniProt P12318 36-217)
T7 construct: also called FcgRIIaR; hFcgRIIa(R)
T7 chain: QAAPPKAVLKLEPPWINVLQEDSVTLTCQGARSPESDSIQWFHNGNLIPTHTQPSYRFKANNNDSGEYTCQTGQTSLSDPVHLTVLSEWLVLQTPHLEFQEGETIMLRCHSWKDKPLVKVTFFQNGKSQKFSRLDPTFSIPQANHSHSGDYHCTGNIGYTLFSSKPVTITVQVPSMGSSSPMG

T8: human FcγRIIa(H) (human, UniProt P12318 36-217)
T8 construct: also called FcgRIIaH; hFcgRIIa(H)
T8 sequence: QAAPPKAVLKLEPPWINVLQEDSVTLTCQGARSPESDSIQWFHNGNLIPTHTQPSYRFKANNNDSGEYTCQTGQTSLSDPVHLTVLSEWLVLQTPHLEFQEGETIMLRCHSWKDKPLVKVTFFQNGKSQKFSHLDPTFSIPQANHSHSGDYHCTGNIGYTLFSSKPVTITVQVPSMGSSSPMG

T9: human FcγRIIb (human, UniProt P31994 43-217, limits assumed)
T9 construct: also called FcgRIIb; hFcgRIIb
T9 sequence: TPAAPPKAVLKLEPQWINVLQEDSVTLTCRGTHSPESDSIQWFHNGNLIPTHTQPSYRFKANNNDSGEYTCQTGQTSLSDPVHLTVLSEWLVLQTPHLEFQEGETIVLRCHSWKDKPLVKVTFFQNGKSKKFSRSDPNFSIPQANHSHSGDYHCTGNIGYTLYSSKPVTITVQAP


Columns and labels:
[1] = target: T10, human FcRn (soluble human FcRn complexed with β2-microglobulin) (human, UniProt P61769 21-119, limits assumed); assay: SPR, antibody captured by Protein L, human FcRn as analyte, pH 7.0, 25 C
T10 construct: also called hFcRn

[2] = target: T1, mouse FcγRIIb; assay: SPR, antibody captured by Protein L, mouse FcγR as analyte, pH 7.4, 25 C
[3] = target: T2, mouse FcγRIII; assay: as above
[4] = target: T3, mouse FcγRIV; assay: as above
[5] = target: T10, human FcRn (soluble human FcRn …); assay: SPR, antibody captured by Protein L, human FcRn as analyte, pH 7.0, 25 C; remark: listed apart in the source
[6] = target: T11, human FcγRIa (human, UniProt P12314 16-292, limits assumed); assay: SPR, antibody captured by Protein L, human FcγR as analyte, pH 7.4, 25 C
T11 construct: also called hFcgRIa; hFcgRI

[7] = target: T10, human FcRn (soluble human FcRn …); assay: SPR, antibody captured by Protein L, human FcRn as analyte, pH 7.0, 25 C; remark: listed apart in the source
[8] = target: T4, human FcγRIIb; assay: SPR, antibody captured by Protein L, human FcγR as analyte, pH 7.4, 25 C
[9] = target: T11, human FcγRIa; assay: as above; remark: listed apart in the source
[10] = target: T5, human FcγRIIa(R); assay: as above
[11] = target: T6, human FcγRIIa(H); assay: as above
[12] = target: T10, human FcRn (soluble human FcRn …); assay: SPR, antibody captured by Protein L, human FcRn as analyte, pH 7.0, 25 C; remark: listed apart in the source
[13] = target: T4, human FcγRIIb; assay: SPR, antibody captured by Protein L, human FcγR as analyte, pH 7.4, 25 C; remark: listed apart in the source
[14] = target: T11, human FcγRIa; assay: as above; remark: listed apart in the source
[15] = target: T12, human FcγRIa (human, UniProt P12314 16-292, limits assumed); assay: SPR, antibody captured by Protein A, FcγR analyte, 1:1 Langmuir fit
T12 construct: also called FcgRIa; hFcgRIa

[16] = target: T7, human FcγRIIa(R); assay: as above
[17] = target: T8, human FcγRIIa(H); assay: as above
[18] = target: T9, human FcγRIIb; assay: as above
[19] = target: T12, human FcγRIa; assay: SPR
[20] = target: T7, human FcγRIIa(R); assay: SPR
[21] = target: T8, human FcγRIIa(H); assay: SPR
[22] = target: T9, human FcγRIIb; assay: SPR
[23] = target: T8, human FcγRIIa(H); assay: SPR, antibody captured by Protein A, FcγR analyte; * calculated with Equation 5

Kd [15] [nM] | Kd [16] [nM] | Kd [18] [nM] | relative KD (KD of IgG1/KD of variant) [19] [fold] | relative KD (KD of IgG1/KD of variant) [20] [fold] | relative KD (KD of IgG1/KD of variant) [21] [fold] | relative KD (KD of IgG1/KD of variant) [22] [fold] | Binder | further results
 |  |  |  |  |  |  | VH3/L(WT)-IgG1-F140 (VH3-IgG1-F140 heavy chain, L(WT)-CK light chain) (antibody, S239K/M252Y/V308P/N434Y; copies: 2 + 2) heavy: QVQLQESGPGLVKPSETLSLTCAVSGHSISHDHAWSWVRQPPGEGLEWIGFISYSGITNYNPSLQGRVTISRDNSKNTLYLQMNSLRAEDTAVYYCARSLARTTAMDYWGEGTLVTVSSASTKGPSVFPLAPSSKSTSGGTAALGCLVKDYFPEPVTVSWNSGALTSGVHTFPAVLQSSGLYSLSSVVTVPSSSLGTQTYICNVNHKPSNTKVDKKVEPKSCDKTHTCPPCPAPELLGGPKVFLFPPKPKDTLYISRTPEVTCVVVDVSHEDPEVKFNWYVDGVEVHNAKTKPREEQYNSTYRVVSVLTPLHQDWLNGKEYKCKVSNKALPAPIEKTISKAKGQPREPQVYTLPPSRDELTKNQVSLTCLVKGFYPSDIAVEWESNGQPENNYKTTPPVLDSDGSFFLYSKLTVDKSRWQQGNVFSCSVMHEALHYHYTQKSLSLSP light: not shown | Kd [1]: 36 nM; BINDING AMOUNT (RU) [2]: -1.8 RU; BINDING AMOUNT (RU) [3]: 46.6 RU; BINDING AMOUNT (RU) [4]: 108 RU; Kd [5]: 36 nM; BINDING AMOUNT (RU) [6]: 335 RU
 |  |  |  |  |  |  | VH3/L(WT)-IgG1-F763 (antibody, name in EU numbering, copies: 2 + 2) heavy: QVQLQESGPGLVKPSETLSLTCAVSGHSISHDHAWSWVRQPPGEGLEWIGFISYSGITNYNPSLQGRVTISRDNSKNTLYLQMNSLRAEDTAVYYCARSLARTTAMDYWGEGTLVTVSSASTKGPSVFPLAPSSKSTSGGTAALGCLVKDYFPEPVTVSWNSGALTSGVHTFPAVLQSSGLYSLSSVVTVPSSSLGTQTYICNVNHKPSNTKVDKKVEPKSCDKTHTCPPCPAPELRGGPKVFLFPPKPKDTLYISRTPEVTCVVVDVSHEDPEVKFNWYVDGVEVHEAKTKPREEQYNSTYRVVSVLQVLHADWLNGKEYKCKVSNKALPAPIEKTISKAKGQPREPQVYTLPPSRDELTKNQVSLTCLVKGFYPSDIAVEWESNGQPENNYKTTPPVLDSDGSFFLYSKLTVDKSRWQQGNVFSCSVMHEALHYHYTQKSLSLSP light: not shown | Kd [7]: 35 nM; BINDING AMOUNT (RU) [8]: -1 RU; BINDING AMOUNT (RU) [9]: -0.4 RU; BINDING AMOUNT (RU) [10]: -1 RU; BINDING AMOUNT (RU) [11]: -0.8 RU
 |  |  |  |  |  |  | VH3/L(WT)-IgG1-F699 (antibody, name in EU numbering, copies: 2 + 2) heavy: QVQLQESGPGLVKPSETLSLTCAVSGHSISHDHAWSWVRQPPGEGLEWIGFISYSGITNYNPSLQGRVTISRDNSKNTLYLQMNSLRAEDTAVYYCARSLARTTAMDYWGEGTLVTVSSASTKGPSVFPLAPSSKSTSGGTAALGCLVKDYFPEPVTVSWNSGALTSGVHTFPAVLQSSGLYSLSSVVTVPSSSLGTQTYICNVNHKPSNTKVDKKVEPKSCDKTHTCPPCPAPELLGGPKVFLFPPKPKDTLYISRTPEVTCVVVDVSHEDPEVKFNWYVDGVEVHEAKTKPREEQYNSTYRVVSVLQVLHADWLNGKEYKCKVSNKALPAPIEKTISKAKGQPREPQVYTLPPSRDELTKNQVSLTCLVKGFYPSDIAVEWESNGQPENNYKTTPPVLDSDGSFFLYSKLTVDKSRWQQGNVFSCSVMHEALHYHYTQKSLSLSP light: not shown | Kd [12]: 23 nM; BINDING AMOUNT (RU) [13]: -0.3 RU; BINDING AMOUNT (RU) [14]: 164 RU
0.34 | 1200 | 5300 |  |  |  |  | IL6R-G1d/IL6R-L (antibody, human IgG1, anti-human IL-6 receptor, G1d constant region; copies: 2 + 2) heavy: not shown light: DIQMTQSPSSLSASVGDRVTITCRASQDISSYLNWYQQKPGKAPKLLIYYTSRLHSGVPSRFSGSGSGTDFTFTISSLQPEDIATYYCQQGNTLPYTFGQGTKVEIK | Kd [17]: 770 nM
7.3 | 12000 | 1100 | 0.047 | 0.1 | 0.014 | 4.8 | IL6R-G1d_v1/IL6R-L (antibody, human IgG1, P238D (EU numbering) in IL6R-G1d; also called IgG1-v1; copies: 2 + 2) heavy: not shown light: DIQMTQSPSSLSASVGDRVTITCRASQDISSYLNWYQQKPGKAPKLLIYYTSRLHSGVPSRFSGSGSGTDFTFTISSLQPEDIATYYCQQGNTLPYTFGQGTKVEIK | Kd [23]: 56000 nM
0.19 | 2.3 | 13 | 1.8 | 522 | 0.51 | 408 | IL6R-G1d_v3/IL6R-L (antibody, human IgG1, S267E/L328F (EU numbering) in IL6R-G1d; also called IgG1-v3; copies: 2 + 2) heavy: not shown light: DIQMTQSPSSLSASVGDRVTITCRASQDISSYLNWYQQKPGKAPKLLIYYTSRLHSGVPSRFSGSGSGTDFTFTISSLQPEDIATYYCQQGNTLPYTFGQGTKVEIK | Kd [17]: 1500 nM
0.46 | 2900 | 2300 | 0.74 | 0.41 | 0.064 | 2.3 | IL6R-G1d_v2/IL6R-L (antibody, human IgG1, L328E (EU numbering) in IL6R-G1d; also called IgG1-v2; copies: 2 + 2) heavy: not shown light: DIQMTQSPSSLSASVGDRVTITCRASQDISSYLNWYQQKPGKAPKLLIYYTSRLHSGVPSRFSGSGSGTDFTFTISSLQPEDIATYYCQQGNTLPYTFGQGTKVEIK | Kd [23]: 12000 nM
